Assays:
[1] = system: primary human cell cultures (11 cell types); test: Custom gene array, 11 human cell types in normoxia or hypoxia for 6 hr and 18 hr; format: cell-based
How it was run: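 Values are each gene's expression relative to its median over all cell types and conditions, after per-array normalisation to control genes and merging of replicate arrays. Cells were 11 human types, mostly unmodified primary cultures, kept in normoxia or exposed to hypoxia for 6 hr or 18 hr.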

[2] = system: human macrophages; test: Custom gene array, macrophages with no cytokines, IL-10 or LPS + IFN, in normoxia and hypoxia; format: cell-based; details: Table 15, referenced to the median value of that gene throughout all 6 conditions
How it was run: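 Cultured macrophages were left untreated or given IL-10 or LPS + IFN, each at 100 ng/ml final, for 6 hr under normoxia or hypoxia (0.1% oxygen). Six conditions in total.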

[3] = system: human breast and ovary tumors; test: Custom gene array, breast and ovary tumors versus normal adjacent tissue; details: Table 19
How it was run: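 Values are per-gene relative to that gene's median across the series, after per-chip normalisation for labelling and hybridization efficiency. Samples: breast and ovary tumors with normal tissue from 5 patients of varied diagnoses, mostly from the same individual (one age-matched separate donor), compared within patient.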

B1: p1F24 (nucleic acid, listed as Homo Sapiens)
DNA: ATGAACTGGCATCTCCCCCTCTTCCTCTTGGCCTCTGTGACGCTGCCTTCCATCTGCTCCCACTTCAATCCTCTGTCTCTCGAGGAACTAGGCTCCAACACGGGGATCCAGGTTTTCAATCAGATTGTGAAGTCGAGGCCTCATGACAACATCGTGATCTCTCCCCATGGGATTGCGTCGGTCCTGGGGATGCTTCAGCTGGGGGCGGACGGCAGGACCAAGAAGCAGCTCGCCATGGTGATGAGATACGGCGTAAATGGAGTTGGTAAAATATTAAAGAAGATCAACAAGGCCATCGTCTCCAAGAAGAATAAAGACATTGTGACAGTGGCTAACGCCGTGTTTGTTAAGAATGCCTCTGAAATTGAAGTGCCTTTTGTTACAAGGAACAAAGATGTGTTCCAGTGTGAGGTCCGGAATGTGAACTTTGAGGATCCAGCCTCTGCCTGTGATTCCATCAATGCATGGGTTAAAAACGAAACCAGGGATATGATTGACAATCTGCTGTCCCCAGATCTTATTGATGGTGTGCTCACCAGACTGGTCCTCGTCAACGCAGTGTATTTCAAGGGTCTGTGGAAATCACGGTTCCAACCCGAGAACACAAAGAAACGCACTTTCGTGGCAGCCGACGGGAAATCCTATCAAGTGCCAATGCTGGCCCAGCTCTCCGTGTTCCGGTGTGGGTCGACAAGTGCCCCCAATGATTTATGGTACAACTTCATTGAACTGCCCTACCACGGGGAAAGCATCAGCATGCTGATTGCACTGCCGACTGAGAGCTCCACTCCGCTGTCTGCCATCATCCCACACATCAGCACCAAGACCATAGACAGCTGGATGAGCATCATGGTCCCCAAGAGGGTGCAGGTGATCCTGCCCAAGTTCACAGCTGTAGCACAAACAGATTTGAAGGAGCCGCTGAAAGTTCTTGGCATTACTGACATGTTTGATTCATCAAAGGCAAATTTTGCAAAAATAACAAGGTCAGAAAACCTCCATGTTTCTCATATCTTGCAAAAAGCAAAAATTGAAGTCAGTGAAGATGGAACCAAAGCTTCAGCAGCAACAACTGCAATTCTCATTGCAAGATCATCGCCTCCCTGGTTTATAGTAGACAGACCTTTTCTGTTTTTCATCCGACATAATCCTACAGGTGCTGTGTTATTCATGGGGCAGATAAACAAACCC
In the case of B1, the mRNA expression level ([1]; cell type #1, HY (hypoxia) 6 hr) is reported as 0.70, the mRNA expression level ([1]; cell type #1, HY (hypoxia) 18 hr) is reported as 1.01 and the mRNA expression level ([1]; cell type #1, NO (normoxia)) is reported as 1.17. It also gave a mRNA expression level ([1]; cell type #2, HY (hypoxia) 6 hr) of 5.52, a mRNA expression level ([1]; cell type #2, HY (hypoxia) 18 hr) of 8.15 and a mRNA expression level ([1]; cell type #2, NO (normoxia)) of 9.63. It also gave a mRNA expression level ([1]; cell type #3, HY (hypoxia) 6 hr) of 0.87, a mRNA expression level ([1]; cell type #3, HY (hypoxia) 18 hr) of 0.56 and a mRNA expression level ([1]; cell type #3, NO (normoxia)) of 0.56. The mRNA expression level ([1]; cell type #4, HY (hypoxia) 6 hr) was 11.5, the mRNA expression level ([1]; cell type #4, HY (hypoxia) 18 hr) was 14.2 and the mRNA expression level ([1]; cell type #4, NO (normoxia)) was 12.8. The mRNA expression level ([1]; cell type #5, HY (hypoxia) 6 hr) was 0.15, the mRNA expression level ([1]; cell type #5, NO (normoxia)) was 0.12 and the mRNA expression level ([1]; cell type #6, HY (hypoxia) 6 hr) was 0.14. For the same molecule, the mRNA expression level ([1]; cell type #6, NO (normoxia)) was 0.11, the “mRNA EXPRESSION (experimental condition) #1” value ([2]; #1 no cytokines/normoxia) was 0.65 and the “mRNA EXPRESSION (experimental condition) #2” value ([2]; #2 no cytokines/hypoxia) was 0.68. The “mRNA EXPRESSION (experimental condition) #3” value ([2]; #3 IL-10/normoxia) was 0.99, the “mRNA EXPRESSION (experimental condition) #4” value ([2]; #4 IL-10/hypoxia) was 1.10 and the “mRNA EXPRESSION (experimental condition) #5” value ([2]; #5 LPS/IFN/normoxia) was 1.62. The “mRNA EXPRESSION (experimental condition) #6” value ([2]; #6 LPS/IFN/hypoxia) was 1.80, the “gene expression level on custom gene array, Breast nor H” value ([3]; breast, normal adjacent tissue, patient H) was 1.64 and the “gene expression level on custom gene array, Breast nor K” value ([3]; breast, normal adjacent tissue, patient K) was 1.25. For the same molecule, the “gene expression level on custom gene array, Breast tum H” value ([3]; breast, tumor tissue, patient H) was 1.89, the “gene expression level on custom gene array, Breast tum K” value ([3]; breast, tumor tissue, patient K) was 0.96 and the “gene expression level on custom gene array, Ovary nor E” value ([3]; ovary, normal adjacent tissue, patient E) was 3.17. The “gene expression level on custom gene array, Ovary nor F” value ([3]; ovary, normal adjacent tissue, patient F) was 3.24, the “gene expression level on custom gene array, Ovary nor G” value ([3]; ovary, normal adjacent tissue, patient G) was 1.26 and the “gene expression level on custom gene array, Ovary tum E” value ([3]; ovary, tumor tissue, patient E) was 0.93. For the same molecule, the “gene expression level on custom gene array, Ovary tum F” value ([3]; ovary, tumor tissue, patient F) was 0.85 and the “gene expression level on custom gene array, Ovary tum G” value ([3]; ovary, tumor tissue, patient G) was 0.80.

From patent publication US20030203372A1, “Analysis method” (priority 2000, published 2003)
